Measured values: US20210171638A1 (HISUN BIORAY PHARMACEUTICAL, published 2021)

What was measured:
[1] = molecular target: T1, Recombinant His-tagged PD-L1 (Homo sapiens (Human), UniProt Q9NZQ7 19-238); experiment: BIAcore SPR, antibody captured by anti-human IgG on CM5 chip, His-tagged PD-L1 as analyte, 1:1 fit
T1 construct: also called target antigen
Protocol: In this Example, BIAcore is used to determine antibody affinity. In this experiment, the human antibody capture kit (GE, BR100839) was used to couple the anti-human IgG antibody to the S series CM5 sensor chip (GE, BR100530) through amino before the ligand and analyte binding. Recombinant anti-PD-L1 antibodies, B10, B11, and H12 were diluted with HBS-EP+Buffer as ligands. The recombinant His-tagged PD-L1 was diluted with HBS-EP+Buffer to 8 μg/ml, 4 μg/ml, 1.6 μg/ml, 0.64 μg/ml, 0.256 μg/ml and 0.102 μg/ml as analytes. In Biacore Wizard mode, affinity analysis experiments were performed in a multi-cycle manner. The test of each sample included 3 Start up, 1 zero concentration control, 6 gradient concentration samples and 1 repeated concentration sample. After each cycle, 10 mM Glycine HCl PH2.1 regeneration solution is used to regenerate the chip. Each concentration cycle of the analyte was set as follows: capture time 180s, ligand solution flow rate 10 μl/min, ligand and analyte binding time 180 s, analyte solution flow rate 30 μl/min; dissociation time 2400 s. Raw data was introduced into the analysis software, the zero concentration control was subtracted, and the reference channel was subtracted to eliminate the volume effect. The 1:1 binding mode in the Kinetics analysis method was used to fit the graph and the affinity data of the antigen antibody was calculated by regression analysis using the analysis software based on the binding curve.

Monkey PD-L1 (R&D) = molecular target: T2, Monkey PD-L1 (R&D) (monkey); experiment: ELISA, monkey PD-L1 coated at 5 µg/ml, anti-human Fc-HRP, OD600
T2 construct: Bought recombinant protein coated on ELISA plates; construct and monkey species not described; also called monkey PD-L1 protein
Protocol: (§1) In this Example, ELISA assay was used to determine binding of the candidate antibody to human, monkey, and mouse PD-L1.
(§2) After incubation overnight at 4° C., the coating solution was discarded the next day and washed with PBST. 200 μl of BSA blocking solution was added into each well and incubated for 1 h at room temperature. […] Then 100 μl of antibody was added into each well and incubated for 2 h at room temperature. Washing was performed three times with PBST, and anti-human Fc-HRP antibody (Sino Biological) was added and incubated for 1 h at room temperature. Finally, each well was washed four times with PBST, TMB color developing solution (Beijing Tiangen BioTech) was added, and the color was developed at room temperature. After the color development was stopped, the OD value was determined with a microplate reader at 600 nm.

Human PD-L1 (R&D) = molecular target: T3, Human PD-L1 (R&D) (human, UniProt Q9NZQ7 19-239, limits assumed); experiment: ELISA, human PD-L1 coated at 5 µg/ml, anti-human Fc-HRP, OD600
T3 construct: Bought recombinant protein coated on ELISA plates; construct not described; also called human PD-L1 protein
Protocol: as §1, §2

Mouse PD-L1 (R&D) = molecular target: T4, Mouse PD-L1 (R&D) (mouse, UniProt Q9EP73 19-238, limits assumed); experiment: ELISA, mouse PD-L1 coated at 5 µg/ml, anti-human Fc-HRP, OD600
T4 construct: Bought recombinant protein coated on ELISA plates; construct not described; also called mouse PD-L1 protein
Protocol: as §1, §2

hPD-L1-Fc protein (R&D) [2] = molecular target: T5, hPD-L1-Fc protein (R&D) (human, UniProt Q9NZQ7 19-239); experiment: blocking ELISA: hPD-L1-Fc coated at 1 µg/mL, B11 dilutions mixed 1:1 with hPD-1-Fc-Biotin (0.25 µg/mL), avidin-HRP, OD450
T5 construct: construct not described; not shown: Fc part

hPD-L1-Fc protein (R&D) [3] = molecular target: T5, hPD-L1-Fc protein (R&D); experiment: blocking ELISA: hPD-L1-Fc coated at 1 µg/mL, B11 dilutions mixed 1:1 with CD80-Biotin (0.25 µg/mL), avidin-HRP, OD450

T3 sequence (Q9NZQ7 19-239 limits assumed): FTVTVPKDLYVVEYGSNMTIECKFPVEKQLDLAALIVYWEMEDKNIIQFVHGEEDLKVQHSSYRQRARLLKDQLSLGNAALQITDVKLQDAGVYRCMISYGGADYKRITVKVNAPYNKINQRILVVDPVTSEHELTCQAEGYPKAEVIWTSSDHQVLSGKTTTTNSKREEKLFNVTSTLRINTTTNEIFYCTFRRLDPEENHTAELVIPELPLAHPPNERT
T4 sequence (Q9EP73 19-238 limits assumed): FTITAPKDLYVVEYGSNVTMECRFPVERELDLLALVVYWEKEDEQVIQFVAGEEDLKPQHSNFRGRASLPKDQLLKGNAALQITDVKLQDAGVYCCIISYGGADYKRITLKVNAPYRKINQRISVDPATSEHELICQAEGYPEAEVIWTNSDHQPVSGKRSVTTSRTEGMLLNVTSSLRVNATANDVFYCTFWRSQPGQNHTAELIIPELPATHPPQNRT
T1 sequence (Q9NZQ7 19-238 limits assumed): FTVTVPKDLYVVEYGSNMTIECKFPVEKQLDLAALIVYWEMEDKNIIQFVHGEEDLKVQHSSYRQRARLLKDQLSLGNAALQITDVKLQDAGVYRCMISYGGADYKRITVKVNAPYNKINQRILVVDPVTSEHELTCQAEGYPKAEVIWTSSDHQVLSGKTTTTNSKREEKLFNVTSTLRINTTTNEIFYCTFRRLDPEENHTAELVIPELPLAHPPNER
T5 sequence (Q9NZQ7 19-239 limits assumed): as the sequence (Q9NZQ7 19-239 limits assumed) above

B1: Anti-PD-L1 Antibody B11 (antibody, V domains shown)
VH: EVQLVESGGGLVQPGGSLRLSCAASGFTFSETWLHWVRQAPGKGLEWVAWVSPFGGSTYYADSVKGRFTISADTSKNTAYLQMNSLRAEDTAVYYCARRHWPGGFDYWGQGTLVTVSS
VL: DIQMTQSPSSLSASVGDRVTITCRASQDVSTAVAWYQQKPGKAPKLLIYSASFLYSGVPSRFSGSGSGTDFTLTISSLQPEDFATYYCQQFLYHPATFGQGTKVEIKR
notes: also called HZPDL1-B11
Kd [1]: 0.629 nM | koff [1]: 0.000857 s⁻¹ | kon [1]: 1.36e+06 M⁻¹ s⁻¹ | EC50 (Monkey PD-L1 (R&D)): 0.495 pM | EC50 (Human PD-L1 (R&D)): 1.03 pM | EC50 (Mouse PD-L1 (R&D)): 0.407 pM | IC50 (read off the curve) (hPD-L1-Fc protein (R&D) [2]): ~0.3 µg/mL | IC50 (read off the curve) (hPD-L1-Fc protein (R&D) [3]): ~0.2 µg/mL

B2: Anti-PD-L1 Antibody B10 (antibody, V domains shown)
VH: not shown
VL: DIQMTQSPSSLSASVGDRVTITCRASQDVSTAVAWYQQKPGKAPKLLIYSASFLYSGVPSRFSGSGSGTDFTLTISSLQPEDFATYYCQQFIFHPATFGQGTKVEIKR
notes: also called HZPDL1-B10
Kd [1]: 1.64 nM | koff [1]: 0.00236 s⁻¹ | kon [1]: 1.44e+06 M⁻¹ s⁻¹ | EC50 (Monkey PD-L1 (R&D)): 2.65 pM | EC50 (Human PD-L1 (R&D)): 1.97 pM | EC50 (Mouse PD-L1 (R&D)): 0.906 pM

B3: Anti-PD-L1 Antibody H12 (antibody, V domains shown)
VH: EVQLVESGGGLVQPGGSLRLSCAASGFTFSESWLHWVRQAPGKGLEWVAWVTPYGGSTYYADSVKGRFTISADTSKNTAYLQMNSLRAEDTAVYYCARRHWPGGFDYWGQGTLVTVSS
VL: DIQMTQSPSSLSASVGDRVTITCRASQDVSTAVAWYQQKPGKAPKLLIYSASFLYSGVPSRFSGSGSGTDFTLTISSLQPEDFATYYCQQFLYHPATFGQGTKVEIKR
notes: also called HZPDL1-H12
Kd [1]: 2.19 nM | koff [1]: 0.00261 s⁻¹ | kon [1]: 1.19e+06 M⁻¹ s⁻¹ | EC50 (Monkey PD-L1 (R&D)): 0.551 pM | EC50 (Human PD-L1 (R&D)): 1.4 pM | EC50 (Mouse PD-L1 (R&D)): 0.483 pM
